Measured values: patent US7037663B2, “Human zona pellucida protein 3 and uses thereof” (Eastern Virginia Medical School, priority 1998, dated 2006)
Read-outs that look alike come from different tables or passages of the source.

How the values were obtained:
human sperm = assay: Acrosome reaction of capacitated sperm by FITC/PSA with Hoechst 33258 viability stain, first series; format: cell-based
Method: The purified rhZP3 was also applied to test its activity to induce human sperm acrosome reaction. The motile sperm obtained by swim-up procedure were allowed to capacitate in HTF/0.5% HSA for four hours at 37° C. in 5% CO2 in huminified air. The motile sperm concentration used to detect acrosome reaction was set at 2 million/ml. A series of 100 ul of capacitated sperm aliquots with different inducers were prepared in Eppendorf vials and cultured in the incubator in 95% air, 5% CO2, at 37° C. for 30 minutes. The test was conducted as follows: positive control: calcium ionophore A23187 (Sigma) at 5 μM; negative controls: 1) sperm culture medium alone, and 2) protein isolated from the culture media of non-transfected PA-1 cells (NT); test: rhZP3. Triple slides were made for each assay. Hoechst 33258 stain was used for determination of sperm viability. Fluorescein isothiocyanate conjugated Pisum sativum agglutinin (FITC/PSA) (Sigma) staining technique was employed to evaluate the acrosome reaction (Cross et al, 1986). Blind reading was required for evaluation and at least 100˜200 cells from 5 random fields were evaluated per spot on the slide. […] The results were expressed as percentage of acrosome-reacted spermatozoa in the total population counted (Cross, 1986).
In some experiments, Solubilized zona pellucida were used as control to test its function to induce sperm acrosome reaction. The solubilized zona pellucida were prepared according to Franken et al (1996). Ooplasma was removed using a small glass micropipette. A vigorous pipetting action would break their zona causing ooplasma to be spilled into surrounding medium. The chosen amount of zonae was transferred into an eppendorf tube and was centrifuged for 15 minutes at 300×g. Using a steromicroscope, the media were removed with pipette, making sure not to disturb zona. The final result was to remove maximum medium. A chosen volume (depending on the zona concentration needed) of 10 mM HCl was added. Under the microscopic vision, zona/HCl was pipetted up and down until all zona were dissolved. Then 10 mM NaOH of equal volume as the HCl was added and mixed well to obtain the stock zona solution.

[1] = system: sperm-zona pellucida binding; assay: Competitive hemizona assay (HZA), second series; format: cell-based, human
Method: Measurement of sperm-zona pellucida binding-Salt-stored, immature (prophase I) human oocytes were used in the experiments. Oocytes were desalted and microbisected into matching halves (hemizonae) using a micromanipulator (Narishige, Tokyo, Japan) following techniques published elsewhere (10, 11, 19). Control and test sperm droplets (100 μl each of a final dilution of 0.5×10^6 motile sperm/ml 1 hour post-swim-up) were incubated separately under heavy mineral oil (Sigma) with a hemizona from the same matching pair for 4 hours at 37° C. in 5% CO2 in humidified air. After the co-incubation period, the hemizonae were washed to remove loosely attached sperm using a finely drawn glass pipette, and the sperm tightly bound to the outer zona surface were counted under phase microscopy (×200). The hemizona assay index (HZI) was calculated as follows: # of sperm bound for test sample/# of sperm bound for control sample×100. An HZI of 100 indicates no inhibition whereas an HZI of 0 reflects complete inhibition of binding.
Swim up sperm were incubated with rhZP3 (test, at a final concentration of 0, 10, 30, 100, 250, 500 or 2,000 ng/ml of protein) or in culture medium (control) for 30 min under identical conditions. After 30 min, a hemizona was added to the test sperm droplet whereas the matching hemizona from the same pair was added to the control sperm droplet. Three pairs of matching hemizonae were tested per rhZP3 concentration per semen sample in a total of three ejaculates from different donors.
Additional competitive HZAs were performed where the test sperm droplet (rhZP3) was assessed against control sperm droplets of culture medium from non-transfected PA-1 cells (NT). Also, competitive HZAs were carried out where the test sperm droplet (culture medium from non-transfected PA-1 cells, NT) was assayed against sperm culture medium. Three pairs of matching hemizonae were tested per dose per experiment in a total of three different ejaculates. These studies were carried out in order to examine the specificity of the effect of the rhZP3.

[2] = Aggregation of purified glycoprotein on freezing; format: physicochemical; conditions: freezing the purified product
Source text: In the zona pellucida, ZP3 associates with ZP2 and ZP1 to form a network structure (Wassarman, 1988). This network structure prevents aggregation of these glycoproteins. However, in solution these glycoproteins tend to aggregate together. This phenomenon has been observed in several recombinant glycoproteins, including ZP3 (Champan and Barratt, 1997). In purifying rhZP3, we have avoided this problem by obtaining a highly purified product, and testing its biological activities within a week-period while maintaining the protein at 4° C. […] This problem becomes worse as larger amounts of the glycoprotein are trying to be produced. Different strategies are being looked into in order to produce and purify large amounts of biologically active rhZP3 in our laboratory.

[3] = system: sperm-zona pellucida binding; conditions: Dong et al 2000; cited from earlier work

B1: rhZP3: recombinant human zona pellucida protein 3 with six-histidine tail, expressed in human ovarian PA-1 cells; secreted glycoprotein of approximately 65 Kd (protein)
chain: QPLWLLQGGASHPETSVQPVLVECQEATLMVMVSKDLFGTGKLIRAADLTLGPEACEPLVSMDTEDVVRFEVGLHECGNSMQVTDDALVYSTFLLHDPRPVGNLSIVRTNRAEIPIECRYPRQGNVSSQAILPTWLPFRTTVFSEEKLTFSLRLMEENWNAEKRSPTFHLGDAAHLQAEIHTGSHVPLRLFVDHCVATPTPDQNASPYHTIVDFHGCLVDGLTDASSAFKVPRPGPDTLQFTVDVFHFANDSRNMIYITCHLKVTLAEQDPDELNKACSFSKPSNSWFPVEGSADICQCCNKGDCGTPSHSRRQPHVMSQWSRSASRNHHHHHH
- increase of the percentage of acrosome-reacted sperm from control conditions (human sperm; 30 ng/ml, 30 minutes pre-incubation): 150%
- % acrosome reacted-sperm (human sperm; NT 30 ng/ml, calcium ionophore 5 μM, rhZP3 30 ng/ml, solubilized zona 0.5 ZP/μl, 4 h capacitation, 30 min, mean (± SEM)): 18.3%
- concentration range of highest (maximal) inhibition of binding [1]: 500 to 2000 ng/mL
- minimally effective dose, inhibition of binding under HZA conditions ([1]; 30 min pre-incubation): 30 ng/mL
- highest inhibition of binding ([1]; in the range of 500-2,000 ng/ml): approximately 70%
- concentration range of highest (maximal) inhibition of binding ([1]; listed as Recombinant hZP3): 500-2,000 ng/ml
- HZI (Hemizona index) ([1]; test reagent 30 ng/mL versus 30 ng/mL NT): 44.5 ± 3.6
- HZI (Hemizona index) ([1]; test reagent 30 ng/mL versus Ham's F-10/0.5% HSA): 43.6 ± 3.3
- HZI (Hemizona index) ([1]; test reagent 500 ng/mL versus 500 ng/mL NT): 41.8 ± 1.9
- HZI (Hemizona index) ([1]; test reagent 500 ng/mL versus Ham's F-10-0.5% HSA): 38.0 ± 2.7
- aggregation on freezing (in words) [2]: problems of aggregation of the glycoprotein as we attempted freezing the product
- sperm motion parameters, treatment versus control (sperm): not significantly different
- range of maximal effect, ligand activity [3]: 30-1,000 ng/ml
